Tests used:
[1] = molecular target: the molecule itself; assay: X-ray fibre diffraction; Hfq11 filaments assembled in water, seen as bundles of approx. 20 nm fibers by TEM; powder diffraction at 270 K, Cu Kα, washed by centrifugation; reflections at 4.6 Å and 7.8–8 Å (cross-β)
[2] = molecular target: the molecule itself; assay: ATR-FTIR; assembled Hfq CTR at 20 mg/mL in D2O, the amyloid state at the start of the lipid experiment

Protein	binding result [1]	binding result [2]
SAQNTSAQQDS (Hfq (host factor 1), E. coli, C-terminal region; Unlabelled synthetic peptide, studied as assembled filaments; also called Hfq 11-residues; 11-residue C-terminal Hfq peptide; source: synthetic peptide (Proteogenix), assembled in water at 4 °C at 20 mg/mL for >1 month) [Hfq11, minimal 11-residue C-terminal assembling motif of E. coli Hfq (Hfq_(87-97))]	binds	
SRPVSHHSNNAGGGTSSNYHHGSSAQNTSAQQDSEETE (Hfq (host factor 1), E. coli, C-terminal region; The lipid experiment names its sample only 'assembled Hfq CTR'; also called Hfq 38-residues; Hfq CTR; source: synthetic peptide (Proteogenix), assembled at 4 °C at 20 mg/mL for >1 month (D2O for FTIR)) [Hfq 38-residue C-terminal region peptide]		binds
